Laboratory results from patent US20230121197A1, “ANTIBODIES SPECIFICALLY BINDING THE CARBOXYMETHYLATED CATALYTIC SUBUNIT OF PROTEIN PHOSPHATASE 2A” (Medizinische Universität Wien, priority 2020, published 2023).

T1: PP4c C-terminal peptide meL307, ac-PSKKPVADYFL-CH3 (α-carboxymethylated) (human, SMILES …)
T1 construct: also called mePP4c; PP4 Me
T1 peptide: Ac-PSKKPVADYFL-OMe

T2: mouse HA PP4c, carboxymethylated (immunoprecipitated from NIH3T3 cells) (mouse) (UniProt P97470)
T2 sequence (C-terminal leucine α-carboxyl methyl ester (cellular methylation), looked up): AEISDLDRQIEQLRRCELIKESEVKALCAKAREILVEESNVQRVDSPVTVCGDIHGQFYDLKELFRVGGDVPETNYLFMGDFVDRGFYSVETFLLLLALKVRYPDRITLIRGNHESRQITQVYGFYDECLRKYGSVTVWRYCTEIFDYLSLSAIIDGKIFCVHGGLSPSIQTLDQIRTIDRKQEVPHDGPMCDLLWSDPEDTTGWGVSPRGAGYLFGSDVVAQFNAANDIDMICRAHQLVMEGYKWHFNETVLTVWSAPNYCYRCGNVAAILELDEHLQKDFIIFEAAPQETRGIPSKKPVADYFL

B1: 7C10-C5 monoclonal antibody (antibody, V domains shown)
VH: DVQLQESGPGLVKPSQSLSLTCSVTGYSITSGYYWNWIRQFPGNKLEWMGYISYDGSNNYNPSLKNRISITRDTSKNQFFLKLNSVTTEDTATYYCAGRFAYWGQGTLVTVSA
VL: DVLMTQTPLSLPVSLGDQASISCRSSQSIVHSNGNTYLEWYLQKPGQSPKLLIYKVSNRFSGVPDRFSGSGSGTDFTLKINRVEAEDLGVYYCFQGSHVPWTFGGGTKLEIK
notes: Used as hybridoma culture supernatant (ELISA, Western blot, IHC) or at 50 µg/mL (SPR); also called 7C10 X63; clone 7C10-C5
B2: 7C10-C5: α-carboxymethylation specific mouse monoclonal IgG1 antibody from single clone hybridoma 7C10-C5 (DSM ACC3350) (antibody)
heavy: MYRMQLLSCIALSLALVTNSDVQLQESGPGLVKPSQSLSLTCSVTGYSITSGYYWNWIRQFPGNKLEWMGYISYDGSNNYNPSLKNRISITRDTSKNQFFLKLNSVTTEDTATYYCAGRFAYWGQGTLVTVSAAKTTAPSVYPLAPVCGDTTGSSVTLGCLVKGYFPEPVTLTWNSGSLSSGVHTFPAVLQSDLYTLSSSVTVTSSTWPSQSITCNVAHPASSTKVDKKIEPRGPTIKPCPPCKCPAPNLLGGPSVFIFPPKIKDVLMISLSPIVTCVVVDVSEDDPDVQISWFVNNVEVHTAQTQTHREDYNSTLRVVSALPIQHQDWMSGKEFKCKVNNKDLPAPIERTISKPKGSVRAPQVYVLPPPEEEMTKKQVTLTCMVTDFMPEDIYVEWTNNGKTELNYKNTEPVLDSDGSYFMYSKLRVEKKNWVERNSYSCSVVHEGLHNHHTTKSFSRTPGK
light: MDMRVPAQLLGLLLLWLSGARCDVLMTQTPLSLPVSLGDQASISCRSSQSIVHSNGNTYLEWYLQKPGQSPKLLIYKVSNRFSGVPDRFSGSGSGTDFTLKINRVEAEDLGVYYCFQGSHVPWTFGGGTKLEIKADAAPTVSIFPPSSEQLTSGGASVVCFLNNFYPKDINVKWKIDGSERQNGVLNSWTDQDSKDSTYSMSSTLTLTKDEYERHNSYTCEATHKTSTSPIVKSFNRNEC
modifications: Amino acid sequence of the recombinant 7C10-C5 heavy chain; Amino acid sequence of the recombinant 7C10-C5 light chain

Tests used:
[1] = molecular target: T1, PP4c C-terminal peptide meL307, …; assay: SPR (Biacore T200), antibody captured, peptide 50-800 nM as analyte, steady state analysis, 25 °C; SPR steady state; antibody captured at 50 µg/ml, PP4 Me peptide 50-800 nM as analyte
Procedure: The differential affinity of anti-carboxymethylated PP2Ac antibodies, 7C10-C5 and 2A10, to carboxymethylated PP2A catalytic subunit versus noncarboxymethylated PP2A catalytic subunit was determined by surface plasmon resonance (SPR) on a Biacore T200 (GE Healthcare) at the Core Facility Biomolecular & Cellular Analysis (University of Natural Resources and Life Sciences Vienna BOKU). The affinity of 7C10-C5 for carboxymethylated and noncarboxymethylated catalytic subunit of PP4 (PP4c), a PP2A-related phosphatase, was also determined.
Series S Sensor Chip CM5 (GE Healthcare, 10296958) Flow cells (e.g. Flow cells 3 and 4 for the data shown in Table 5 and FIG. 32) were coated with 30 μg/mL anti-mouse IgG antibody (in immobilization buffer) using the mouse antibody capture kit (GE Healthcare, BR-1008-38, Lot 10294578) via amine coupling according to the manufacturer's protocol (i.e. https://www.cytivalifesciences. com/en/us/shop/protein-analysis/spr-lab el-free-analysis/capture-reagents/mouse-antibody-capture-kit-p-05986). The immobilisation levels obtained were 11620.2 RU (Flow cell 1), 10836.5 RU (Flow cell 2), 11605.9 RU (Flow cell 3) and 11333.9 RU (Flow cell 4), and thus were within the specifications. […]
SPR experiments were performed with the BiacoreT200 instrument (Cytiva). […] The sensorgrams obtained were analyzed with BiacoreT200 Evaluation Software (version 3.1).

[2] = molecular target: T2, mouse HA PP4c, carboxymethylated (immunoprecipitated from NIH3T3 cells) (mouse); assay: Western blot quantification, signal normalized to HA level, HA-PP2A set to 1, N=3
[3] = molecular target: α-carboxymethylated PP2Ac (Homo sapiens, UniProt P67775); assay: IHC tissue microarray analysis of localized and metastatic prostate cancer tissue, Allred scoring; set-up: IHC tissue microarray analyses of prostate cancer tissue with the 7C10-C5 antibody; from tissue; host or cells: localized and metastatic prostate cancer tissue (tissue microarray, FFPE)
α-carboxymethylated PP2Ac, sequence (P67775 whole entry): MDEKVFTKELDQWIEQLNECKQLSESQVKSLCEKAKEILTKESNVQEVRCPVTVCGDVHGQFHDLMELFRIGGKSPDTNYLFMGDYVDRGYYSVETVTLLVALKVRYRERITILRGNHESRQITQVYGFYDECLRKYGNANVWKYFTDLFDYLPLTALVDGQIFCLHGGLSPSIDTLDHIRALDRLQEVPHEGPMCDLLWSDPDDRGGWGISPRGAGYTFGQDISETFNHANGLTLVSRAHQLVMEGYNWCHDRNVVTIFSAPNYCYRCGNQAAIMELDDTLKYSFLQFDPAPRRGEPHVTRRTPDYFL
Procedure: Immunohistochemical staining was performed on the DAKO Autostainer (DAKO, Carpinteria, Calif.) using Envision+ or liquid streptavidin-biotin and diaminobenzadine (DAB) as the chromogen. De-paraffinized sections were labeled with mouse monoclonal antibody 7C10-C5 (1:200) overnight at 4 C. Microwave 10 mM Tris HCl, pH9 containing 1 mM EDTA epitope retrieval was used prior to staining. Appropriate negative (no primary antibody) and positive controls (pancreas) were stained in parallel with each set of slides studied. Peptide competition studies were performed using 2 peptides ([…]*) (SEQ ID NO:115) differing in the methylation status at position L (marked with a *); FIG. 13E: Peptides were incubated at ambient temperature for 60 mins at 10-1000× molar ratios before being applied to the slide. FIG. 13F: Before being stained, slides were incubated in freshly made 200 mM NaOH for 10 mins at 4° C. and then neutralized by several washes in TBST.
Stained slides were scanned using an APERIO AT2 (Leica) and the digital images imported into QuPath (Bankhead et al., 2017). TMA cores were analyzed for percentage of cells staining and intensity. In FIGS. 13E and F, higher visibility of the dark cell nuclei indicates weaker α-carboxymethylated PP2Ac staining.
The assembly of trimeric tumor-suppressive PP2A holoenzymes is promoted/facilitated by PP2Ac α-carboxymethylation. The PP2Ac α-carboxymethylation levels correlate positively with the levels of methylation-sensitive trimeric PP2A holoenzymes. A truly specific anti-methyl-PP2Ac antibody (7C10-C5) can be used to determine the α-carboxymethylated PP2Ac levels in normal and disease tissue by IHC analyses of tissue microarrays of cancer, normal tissues and tissues obtained from other disease states including but not limited to heart disease, Alzheimers disease, and diabetes. The PP2A methylation status in disease tissue can be graded using the Allred scoring system that scores the proportion of cells that stain by IHC as well as the intensity of the IHC staining. […] Allied scoring is calculated the following way: […]

[4] = IHC, mean±standard deviation, 12 samples

| Molecule | Kd [1] [nM] | 7C10/HA blot signal relative to HA-PP2A = 1 [2] | average Allred score, localized prostate cancer tissues [3, 4] | average Allred score, metastatic prostate cancer tissues [3, 4] | discrimination between localized and metastatic prostate cancer by IHC staining ([3]; tissue microarray, Allred score) |
| --- | --- | --- | --- | --- | --- |
| B1 | 132 | 0.01 7C10/HA | – | – | – |
| B2 | – | – | 2.2±2.3 | 0.4±1.4 | significantly lower levels |
